Assay results published in article PMC4877809.

Target: CotB3 (class I P450 hydroxylase of the cyclooctatin pathway) (Streptomyces melanosporofaciens MI614-43F2) (UniProt C9K1X6)
Chain of UniProt C9K1X6 (C9K1X6 whole entry): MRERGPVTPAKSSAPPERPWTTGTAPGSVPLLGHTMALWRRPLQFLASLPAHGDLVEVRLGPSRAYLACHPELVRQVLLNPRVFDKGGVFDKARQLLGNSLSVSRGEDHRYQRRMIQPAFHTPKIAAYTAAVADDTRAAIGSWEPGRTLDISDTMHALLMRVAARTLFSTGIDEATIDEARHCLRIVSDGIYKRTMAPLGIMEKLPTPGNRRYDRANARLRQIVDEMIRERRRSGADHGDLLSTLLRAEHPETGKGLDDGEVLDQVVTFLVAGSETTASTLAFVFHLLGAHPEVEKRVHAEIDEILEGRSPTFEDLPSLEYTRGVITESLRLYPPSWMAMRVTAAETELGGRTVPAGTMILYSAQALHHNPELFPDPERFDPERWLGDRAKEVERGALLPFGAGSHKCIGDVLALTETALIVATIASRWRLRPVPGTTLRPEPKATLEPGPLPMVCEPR

## Pdx-W106E (putidaredoxin, ferredoxin of the Pseudomonas putida PdR·Pdx redox system, W106E mutant) (natural protein)
  whole cell catalysis in E. coli (CotB3 with PdR/Pdx-W106E): formation of cyclooctat-9-en-5,7-diol from added cyclooctat-9-en-7-ol, GC-MS: 100%
